Values of other authors in PMC7143314.

Molecular target: RAF RBD (Homo sapiens) (UniProt P04049)

RAS (from UniProt P01116)
Kd: 20 nM
